Data as given in paper PMC5442856, “A bacterial negative transcription regulator binding on an inverted repeat in the promoter for epothilone biosynthesis”.

Molecular target: T1, Esi (His-Esi) (Sorangium cellulosum So0157-2, UniProt UPI000354DD11 1-373)
T1 sequence: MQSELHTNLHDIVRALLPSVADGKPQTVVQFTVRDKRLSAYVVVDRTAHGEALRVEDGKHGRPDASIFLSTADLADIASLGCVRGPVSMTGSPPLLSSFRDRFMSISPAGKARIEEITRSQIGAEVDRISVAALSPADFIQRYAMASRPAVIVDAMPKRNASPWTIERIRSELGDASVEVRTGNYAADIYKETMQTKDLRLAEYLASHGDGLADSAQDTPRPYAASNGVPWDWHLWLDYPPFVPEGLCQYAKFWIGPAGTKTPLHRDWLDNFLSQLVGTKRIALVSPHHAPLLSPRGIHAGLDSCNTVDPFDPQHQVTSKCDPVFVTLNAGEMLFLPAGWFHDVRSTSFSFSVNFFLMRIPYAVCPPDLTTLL
Test: EMSA; poly(dI-dC) competitor; increasing His-Esi; 12 pmol DNA; EMSA: 25 uL with 2.5 uL of 10x buffer (final about 12 mM HEPES, 4 mM Tris, 60 mM KCl, 5 mM MgCl2, 0.1 mM EDTA, pH 8.0), 1 uL glycerol buffer (20% glycerol, 20 mM HEPES), poly(dI-dC), remainder protein and 50 mM NaH2PO4; 30 C, 30 min; 5% native PAGE in TGE pH 8.0 at 4 C
Details: protein: recombinant; tags: N-terminal 6xHis (pET-28a); blunt

B1: 17-bp operator of epothilone promoter (dsDNA)
DNA 1: GGGACGAGCTAATTCCC
DNA 2: GGGAATTAGCTCGTCCC
binding result: binds
